Key:
[1] = target: GAL4 DNA-binding domain-p1-p6 fusion protein (yeast; human immunodeficiency virus type 1 (HIV-1)) (UniProt P04386); test: yeast 2-hybrid, β-galactosidase; Tsg101 variant with p1-p6
[2] = target: GAL4 activation domain-Tsg101 fusion protein (wild-type human Tsg101) (yeast; human) (UniProt Q99816); test: yeast 2-hybrid, β-galactosidase; p1-p6 variant with Tsg101
GAL4 activation domain-Tsg101 fusion protein (wild-type human Tsg101) (yeast; human), sequence (Q99816 whole entry, the tested form may be a part): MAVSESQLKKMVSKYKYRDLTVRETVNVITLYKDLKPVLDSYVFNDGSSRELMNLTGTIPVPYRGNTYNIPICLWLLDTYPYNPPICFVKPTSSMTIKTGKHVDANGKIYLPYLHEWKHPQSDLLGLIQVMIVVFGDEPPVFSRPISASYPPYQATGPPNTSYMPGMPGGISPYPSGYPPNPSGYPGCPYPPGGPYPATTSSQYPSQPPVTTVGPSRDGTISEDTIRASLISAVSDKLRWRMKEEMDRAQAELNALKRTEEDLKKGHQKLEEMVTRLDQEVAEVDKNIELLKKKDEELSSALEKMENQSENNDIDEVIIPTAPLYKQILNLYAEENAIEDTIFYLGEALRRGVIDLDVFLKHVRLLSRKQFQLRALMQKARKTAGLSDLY

Substance: GAL4 activation domain-Tsg101 Y110W (from UniProt Q99816 1-390)
- p6 interaction, % of wild-type (% of wild-type) [1]: 31

Substance: GAL4 DNA-binding domain-p1-p6 with the first PTAPP motif deleted (from UniProt P04386 1-147; P03347 435-512)
- β-galactosidase activity, % of wild-type protein binding (% of wild-type) [2]: 50

Substance: GAL4 activation domain-Tsg101 Y113V (from UniProt Q99816 1-390)
- binding, % of wild-type (% of wild-type) [1]: 33

Substance: GAL4 activation domain-Tsg101 with Ala for Thr-Tyr-Asn (67-69) (from UniProt Q99816 1-390)
- binding, % of the wild-type level (% of wild-type) [1]: 5

Substance: GAL4 DNA-binding domain-p1-p6 with the first PTAPP motif deleted and Ala for Pro7 in the second motif (from UniProt P04386 1-147; P03347 435-512)
- β-galactosidase activity, % of wild-type (% of wild-type) [2]: 25

Substance: GAL4 DNA-binding domain-p1-p6 with the second PTAPP motif deleted (from UniProt P04386 1-147; P03347 435-512)
- β-galactosidase activity, % of wild-type protein binding (% of wild-type) [2]: 25

Substance: GAL4 DNA-binding domain-p1-p6 with the (LXX)4 repeat motif deleted (from UniProt P04386 1-147; P03347 435-512)
- β-galactosidase activity, % of the wild-type level (% of wild-type) [2]: 55
